In patent US20230364000A1, “COMPOSITIONS COMPRISING COMBINATIONS OF COLLAGEN OR ELASTIN POLYPEPTIDES WITH ACTIVE INGREDIENTS AND METHODS OF USING SAME” (Geltor, Inc., priority 2020, published 2023):

System: facial skin
Assay: Expert clinical grader evaluation of facial skin (10 cm VAS; five-point ordinal scale for erythema), clinical study of Example 3
Format: in vivo, human
Conditions: 0.1% w/w topical formulation, Week 2
Procedure: A clinical study using human subjects to determine the effects of a topical skincare product containing truncated human type 21 collagen (SEQ ID NO: 16) is performed. The research is performed according to U.S. and International standards of Good Clinical Practice (FDA and ICH guidelines) and applicable government regulations.
A base formulation (control formulation) made of water, olive oil glycereth-8 esters, glycerin, coconut alkanes, hydroxyethyl acrylate/sodium acryloyldimethyl taurate copolymer, pentylene glycol, disodium EDTA, caprylyl glycol, chlorphenesin, phenoxyethanol is prepared. A formulation containing the truncated human type 21 collagen is prepared by adding sufficient collagen to prepare a topical formulation containing 0.1% w/w collagen.
Visual Analog Scales (VAS) are commonly used in clinical research to measure intensity or frequency of various symptoms, subjective characteristics or attitudes that cannot be directly measured. VAS are a reliable scale and more sensitive to small changes than simple ordinal scales. (A. Paul-Dauphin, F. Guillemin, J. Virion and S. Briancon, “Bias and precision in visual analog scales: A randomized controlled trial,” American Journal of Epidemiology, vol. 150, no. 10, pp. 1117-27, 1999). When responding to a VAS item, the expert grader specifies their level of agreement to a statement by indicating a position along a line (10 cm) between two end-points or anchor responses. Simple VAS is used to evaluate efficacy parameters in which the ends of a 10 cm horizontal line is defined as extreme limits orientated from the left (best) to the right (worst). Signs of photo-aging can be classified as follows: Mild=1-3.9 cm, Moderate=4-6.9 cm, Severe=7-10 cm.
Ordinal scales allow a number to be directly and objectively attached to the quality of a given attribute. When responding to an ordinal scale item, the expert grader specifies their level of agreement to a statement by choosing a set grade, or level.
The appearance of each subject's facial skin redness (erythema) is assessed by an expert grader using the following five-point ordinal scale for qualification at Baseline (Table 6). If qualified, each subject will undergo further erythema assessments at week 2, week 4, week 6 and week 8.
Fourteen female subjects are enrolled. The inclusion criteria are Caucasian female subjects with Fitzpatrick skin type III in good general health, and between ages of 35 and 65 years old, inclusive at enrollment. Inclusion criteria also include signs of aging on face as determined by an expert grader at a baseline of: a) Score of >2 cm<6 on 10 cm scale for lines/wrinkles; and b) Score of >1<3 on 5-point ordinal scale for facial redness (erythema). Table 7 discloses the demographics of the study participants.
The results of the expert clinical grader evaluation on lines/wrinkles, firmness (visual), elasticity (tactile), brightness, texture/softness (tactile), texture/smoothness (visual) and erythema after two weeks treatment are shown in Table 8. All of the tested characteristics were improved. The scores for brightness, texture/softness (tactile), texture/smoothness (visual) and erythema improved with statistical significance.

B1: SEQ ID NO: 16: truncated human collagen type 21 alpha 1 without the DsbA secretion tag, recombinantly expressed in E. coli (protein)
chain: AGFPGLPGPAGEPGRHGKDGLMGSPGFKGEAGSPGAPGQDGTRGEPGIPGFPGNRGLMGQKGEIGPPGQQGKKGAPGMPGLMGSNGSPGQPGTPGSKGSKGEPGIQGMPGASGLKGEPGATGSPGEPGYMGLPGIQGKKGDKGNQGEKGIQGQKGENGRQGIPGQQGIQGHHGAKGERGEKGEPGVR
- Brightness Mean Percent Improvement From BL mean: 2.57%
- Brightness Percent of Subjects Showing Improvement From BL: 78.6%
- Elasticity (Tactile) Mean Percent Improvement From BL mean: 0.25%
- Elasticity (Tactile) Percent of Subjects Showing Improvement From BL: 35.7%
- Erythema Mean Percent Improvement From BL mean: 23.81%
- Erythema Percent of Subjects Showing Improvement From BL: 35.7%
- Firmness (Visual) Mean Percent Improvement From BL mean: 1.08%
- Firmness (Visual) Percent of Subjects Showing Improvement From BL: 64.3%
- Lines/Wrinkles (Global) Mean Percent Improvement From BL mean: 0.92%
- Lines/Wrinkles (Global) Percent of Subjects Showing Improvement From BL: 57.1%
- Texture/Smoothness (Visual) Mean Percent Improvement From BL mean: 3.63%
- Texture/Smoothness (Visual) Percent of Subjects Showing Improvement From BL: 64.3%
- Texture/Softness (Tactile) Mean Percent Improvement From BL mean: 6.43%
- Texture/Softness (Tactile) Percent of Subjects Showing Improvement From BL: 71.4%
- Texture/Softness (Tactile) Mean ± SD (n 14, baseline 4.82 ± 0.82, P-value 0.008*): 4.51 ± 0.89
- Elasticity (Tactile) Mean ± SD (n 14, baseline 4.91 ± 0.53, P-value 0.547): 4.90 ± 0.52
- Firmness (Visual) Mean ± SD (n 14, baseline 5.07 ± 0.77, P-value 0.120): 5.01 ± 0.75
- Lines/Wrinkles (Global) Mean ± SD (n 14, baseline 5.22 ± 0.75, P-value 0.336): 5.17 ± 0.75
- Texture/Smoothness (Visual) Mean ± SD (n 14, baseline 5.46 ± 0.70, P-value 0.009*): 5.25 ± 0.68
- Brightness Mean ± SD (n 14, baseline 5.51 ± 0.54, P-value 0.010*): 5.37 ± 0.62
- Erythema Mean ± SD (five-point ordinal scale, n 14, baseline 1.60 ± 0.73, P-value 0.021*): 1.21 ± 0.80
